The assay has as its target T1, HLA-A*0201 (human).
T1 construct: MHC class I molecule on cells; detected by flow cytometry with anti-HLA-A2 antibody BB7.2; also called HLA-A2; A2.1
The assay is described as follows: off-kinetics assay on acid-stripped HLA-A*0201 LCL pulsed with peptide and b2 microglobulin, flow cytometry of surface HLA-A2 (stable if MFI at least 1.5-fold over unpulsed cells). As to the method:
Next, MHC-peptide complex stability was determined using an off-kinetics assay. […] Each peptide was immediately pulsed onto cells at […] for 1 hour in the presence of b2 microglobulin at 3 ug/ml at room temperature. Excess peptide was washed off and the cells were incubated at 37° C. for 0, 2, 4 and 6 hours. Cells were washed at the end of each time point and stained for cell surface HLA-A2 expression, then analyzed by flow cytometry.
In general terms: A flow cytometer gives signals particle by particle.

B1: hAFP325-334, residues 325-334 of SEQ ID NO:2 (peptide)
peptide: GLSPNLNRFL
notes: One of the four 'dominant' AFP peptides; synthesized by standard techniques
In the case of B1, the “Relative Off kinetics” value amounted to 2 h.

B2: hAFP158-166, residues 158-166 of SEQ ID NO:2 (peptide)
peptide: FMNKFIYEI
notes: as for B1
For the molecule B2, the “Relative Off kinetics” value amounted to 4 h.

B3: hAFP137-145, residues 137-145 of SEQ ID NO:2 (peptide)
peptide: PLFQVPEPV
notes: as for B1
For B3, the “Relative Off kinetics” value stood at 4 h.

B4: hAFP542-550, residues 542-550 of SEQ ID NO:2 (peptide)
peptide: GVALQTMKQ
notes: as for B1
B4: the “Relative Off kinetics” value amounted to 6 h.

Values taken from patent US20030143237A1 (University of California, published 2003).
